Data reported in US8188081B2, “Methods of treating inflammation using prokineticin 1 receptor antagonists” (Janssen Pharmaceutica, NV, priority 2005, dated 2012).
Blank lines part the entries; values can stand above or below the molecule they belong to.

Tests used:
PK1R [1] = target: T1, PK1R (Rattus norvegicus, UniProt Q8R416); conditions: test compound 1 μM basolateral, 15 min; PK1 10 and 100 nM cumulative; FIGS. 9-11
Description: Methodology. The basic methodology for Using-type ion flux chambers used in these studies was the same as that described in detail above with the following modifications to the experimental protocol. […] The responses to two sequential EFS were used to guage tissue viability and comparability of the responses of individual tissues from each rat and between rats. Tissue conductance was measured at periodic intervals as changes in the amplitudes of brief short-circuit current responses evoked by application of 1 mV amplitude bi-polar pulses from a pulse generator using Ohm's Law. Three to four tissues from each rat were studied. The tissues from a given animal were grouped and assigned accordingly: one control tissue which received only vehicle followed by two consecutive doses of PK1 ligand added in a cumulative fashion to the basolateral surface of the tissue; the remaining two to three tissues from the same animal were assigned to be exposed to a given PK1 receptor antagonist (e.g., 3-4 tissues from 1 rat: Control, Antagonist1, Antagonist2, Antagonist3). Test compound was added to the basolateral tissue side reservoir at a final concentration of 1 μM and allowed a 15 minute incubation period prior to challenge with the PK1 peptide. At the end of this 15 minute exposure period, PK1 ligand at 10 and 100 nM was added in a cumulative fashion to each tissue to characterize the inhibitory effect of the test compound. At the conclusion of the experiment, EFS was re-applied to guage tissue viability and stability of responsiveness.

PK1R [2] = target: T1, PK1R; assay: Inhibition of PK1-induced contraction of rat ileal longitudinal smooth muscle by PK1R antagonists (organ bath); set-up: from tissue; host or cells: isolated rat ileum (organ bath); conditions: FIG. 19
Text: The effects of PK1 on isolated segments of rodent gastrointestinal (GI) tissues have been studied ex vivo, using a “myobath” apparatus. This organ bath apparatus is used to measure the changes in contractile activity of GI smooth muscle following application of PK1, in the presence or absence of compounds that block PK1 receptor (PK1R)-mediated increases in intracellular free Ca^2+ in PK1R-transfected cells in vitro.
Methods. Rodents (mice, rats, and guinea pigs) were euthanized by […], and exsanguinated. Segments of GI tissues, including stomach, duodenum, jejunum, ileum, proximal colon and distal colon were resected from the animals and mounted, either as intact segments (i.e., 15 mm long cylinders of intestine) or flat strips (˜2.5 mm×15 mm) oriented along the longitudinal muscle axis. In some experiments flat strips were oriented along the circular muscle axis. […]
The tissues were lengthened to impart a resting load of between […] (depending on the preparation), and equilibrated under these conditions for 1 hr, changing the bathing solution to fresh KRB every 15 min. […] The response to PK1 under these conditions is compared to the response of the same tissue preparation to ACh and the contraction (or relaxation) calculated as a percent of the response to ACh. […]

[3] = test system: ileum mucosal tissues from PK1 receptor knock-out mice; assay: PK1-evoked Isc in ileum mucosal tissues from PK1 receptor knock-out mice; conditions: exogenous PK1 peptide; FIG. 5
rat small intestine [4] = assay: Enteropooling and accumulation of fluid in rat small intestine in vivo; conditions: 30 min
Description: Methodology. Experiments were carried out to gravimetrically measure the in vivo pro-secretory effect of PK1 peptide in the rat small bowel. The effect of PK1 peptide on stimulation of enteropooling and accumulation of fluid in the gut of intact rats was evaluated using two different routes of administration. Non-fasted rats were randomly assigned to two experimental groups (n=10 per group) in two separate experiments. In the first experiment, each rat was given an oral bolus (1.5 ml) of 6% carmine dye in 0.5% methylcellulose wt/vol containing a dose of PK1 peptide at 100 μg/kg or buffer vehicle. (See FIG. 12). […] (See FIG. 13). Thirty minutes later, rats were rapidly euthanized by cervical dislocation after inhalation anesthesia with 100% carbon dioxide and the entire small intestine was excised from the pylorus to the ileocecal junction. The total small bowel length was measured and then divided equally into thirds using 4-0 silk suture loops to ligate, isolate, and separate each segment to prevent leakage of intraluminal contents. […] Net fluid content weight was calculated as the difference between intact and empty intestinal segment weights to the nearest milligram and normalized to segment wet tissue weight in grams.

rat ileum = assay: Contractility of isolated rat GI segments ex vivo (myobath organ bath), response to PK1
rat small intestine [5] = assay: Small intestinal transit of an oral carmine test meal in rats in vivo; conditions: oral PK1 100 μg/kg; 30 min; FIG. 14
Description: Methodology. Small intestinal transit. Rats received a bolus of 1.5 ml total volume that contained a 6% solution of carmine dye in 0.5% methyl cellulose (wt/vol) together with a dose of either PK1 (100 μg/kg) or vehicle by oral feeding tube. After 30 min, the rats were rapidly euthanized by cervical dislocation after inhalation anesthesia with 100% carbon dioxide. The entire small intestine of each rat was carefully resected starting at the ileal-cecal junction first and working back toward the pylorus of the stomach until the entire small intestine had been removed intact. The excised small bowel was arranged lengthwise along a metric straight-edge, and the length of the entire small intestine was measured in centimeters. The leading edge of the carmine dye front was visualized and the distance traveled by the carmine was also measured and calculated as a percentage of the total excised length of the small intestine. Transit was expressed as the percentage of the total intestinal length traveled by the carmine dye in 30 minutes.

T1 sequence (Q8R416 whole entry): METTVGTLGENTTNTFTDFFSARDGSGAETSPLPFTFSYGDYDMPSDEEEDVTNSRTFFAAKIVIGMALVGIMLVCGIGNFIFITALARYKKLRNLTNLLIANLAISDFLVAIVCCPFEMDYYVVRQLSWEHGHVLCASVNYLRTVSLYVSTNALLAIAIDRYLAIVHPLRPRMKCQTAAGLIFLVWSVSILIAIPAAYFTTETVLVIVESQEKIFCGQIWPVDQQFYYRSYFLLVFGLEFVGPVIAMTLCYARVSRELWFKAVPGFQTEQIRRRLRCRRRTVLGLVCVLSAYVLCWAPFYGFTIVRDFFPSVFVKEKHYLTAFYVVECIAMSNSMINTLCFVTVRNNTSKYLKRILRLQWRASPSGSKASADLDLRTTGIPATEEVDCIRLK

suppression of the PK1 evoked increase in Isc (PK1R [1]): suppressed
Molecule: [H]/N=C(\N)NCCNc1nc(=O)n(Cc2ccc(F)cc2)c(=O)n1Cc1ccc(OC)cc1 [JNJ 27624675]

suppression of the PK1 evoked increase in Isc (PK1R [1]): suppressed
Molecule: COc1ccc(Cn2c(NCCNC(=N)NC(C)C)nc(=O)n(Cc3ccc(Cl)c(Cl)c3)c2=O)cc1 [JNJ 28480894]

suppression of the PK1 evoked increase in Isc (PK1R [1]): suppressed
Molecule: COc1ccc(Cn2c(NCCn3c(N)nc4ccccc43)nc(=O)n(Cc3ccc(F)cc3)c2=O)cc1 [JNJ 28845557]
early versus late response inhibition (PK1R [2]): more potent and more effective at inhibition of the early response
effect on the PK1-induced contraction of rat ileal longitudinal smooth muscle (PK1R [2]; early and late components): concentration-dependent inhibitory effect

B1: PK1: recombinant human Prokineticin 1 expressed in HEK 293 cells, FLAG tag cleaved; mixture of full-length and four C-terminal residue truncated product (protein, UniProt P58294 20-105, looked up)
Prokineticin-1: AVITGACERDVQCGAGTCCAISLWLRGLRMCTPLGREGEECHPGSHKVPFFRKRKHHTCPCLPNLLCSRFPDGRYRCSMDLKNINF
modifications: mixture with C-terminal 4-residue truncated form
notes: recombinant human Prokineticin 1 expressed in HEK 293 cells, FLAG tag cleaved; mixture of full-length and four C-terminal residue truncated product
change in Isc in tissues from PK1 receptor knock-out mice compared to wild-type littermates [3]: did not elicit a significant change in Isc
fluid accumulation in rat small bowel in vivo (rat small intestine [4]; intraperitoneal PK1 100 μg/kg, FIG. 13): stimulates fluid accumulation
fluid accumulation in rat small bowel in vivo (rat small intestine [4]; oral PK1 100 μg/kg, FIG. 12): stimulates fluid accumulation
response of intestinal tissues (mid-duodenum, jejunum, distal ileum) (rat ileum; PK1 100 nM): evoked longitudinal contractions
response of proximal and distal colon (rat ileum; PK1 100 nM): evoked longitudinal relaxations
time to peak contraction, early phase (rat ileum; isolated rat ileum): 6.4 min
time to peak contraction, late phase (rat ileum; isolated rat ileum): 53.8 min
small intestinal transit of a carmine test meal compared to vehicle (rat small intestine [5]): significantly accelerated
